The record followed here is US20210171598A1, “PEPTIDE HORMONE WITH ONE OR MORE O-GLYCANS” (priority 2017, published 2021).

In series [1] the target is neprilysin (NEP) (Homo sapiens, UniProt P08473). The experiment in a line: In vitro degradation by neprilysin, MALDI-TOF time course. Conditions: 37° C., MALDI-TOF. The procedure:
(§1) Many peptide hormones are destined for endocrine circulation where they are rapidly degraded with half-lives reaching only a few minutes^6-8.
(§2) For enzymatic degradation assays using either NEP or DPP-IV (R&D systems, UK), an enzyme titration was carried out to ensure full degradation within one hour of reaction time.
(§3) MALDI-TOF-MS was performed on a Bruker Autoflex instrument (Bruker Daltonik GmbH, Bremen, Germany) by mixing the quenched aliquots with a saturated solution of α-Cyano-4-hydroxycinnamic acid in ACN/H2O/TFA (70:30:0.1) at a ratio 1:1 on a target steel plate and mass-spectra were acquired in linear mode.
Reactions were performed in 50 mM Tris, 0.05% Brij-35, pH 9 (Neprilysin), or 50 mM Tris, 20 mM NaCl, pH 7.5 (IDE) and incubated at 37° C.

Series [2] has as its target dipeptidyl peptidase IV (DPP-IV) (Homo sapiens, UniProt P27487). Nature of the series: In vitro degradation by DPP-IV, MALDI-TOF time course. The procedure: as §1, §2, §3
Series [3] has as its target T1, VIP/PACAP receptor VPAC1 (UniProt P32241 31-457).
T1 sequence (looked up): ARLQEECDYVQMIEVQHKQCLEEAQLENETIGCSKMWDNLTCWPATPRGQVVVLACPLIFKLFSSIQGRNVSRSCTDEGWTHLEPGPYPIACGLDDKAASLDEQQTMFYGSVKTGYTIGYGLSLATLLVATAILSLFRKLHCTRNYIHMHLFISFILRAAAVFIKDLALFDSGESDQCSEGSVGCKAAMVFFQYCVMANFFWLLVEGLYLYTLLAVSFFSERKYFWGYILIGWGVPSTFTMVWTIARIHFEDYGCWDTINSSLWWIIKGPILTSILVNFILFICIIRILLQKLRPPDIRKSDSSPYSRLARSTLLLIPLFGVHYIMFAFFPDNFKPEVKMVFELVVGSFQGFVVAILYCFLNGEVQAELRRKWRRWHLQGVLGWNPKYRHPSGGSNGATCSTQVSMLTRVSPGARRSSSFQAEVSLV
The experiment in a line: cell-based or functional assay.

Series [4] deals with T2, VIP/PACAP receptor VPAC2 (UniProt P41587 24-438).
T2 sequence (looked up): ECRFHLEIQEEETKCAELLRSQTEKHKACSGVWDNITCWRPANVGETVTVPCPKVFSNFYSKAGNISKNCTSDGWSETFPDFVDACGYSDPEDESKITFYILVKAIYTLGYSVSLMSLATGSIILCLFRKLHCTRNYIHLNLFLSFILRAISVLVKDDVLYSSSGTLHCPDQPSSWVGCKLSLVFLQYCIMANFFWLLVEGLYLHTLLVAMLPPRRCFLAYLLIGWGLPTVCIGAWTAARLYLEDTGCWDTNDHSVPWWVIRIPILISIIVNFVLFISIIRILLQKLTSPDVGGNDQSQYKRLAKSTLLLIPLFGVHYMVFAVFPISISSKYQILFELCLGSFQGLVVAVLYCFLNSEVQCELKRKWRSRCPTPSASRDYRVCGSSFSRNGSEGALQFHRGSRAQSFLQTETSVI
Nature of the series: cell-based or functional assay.

Groups on a side chain read outwards from the residue. No end group written: not given here.

Chain of dipeptidyl peptidase IV (DPP-IV) (P27487 whole entry): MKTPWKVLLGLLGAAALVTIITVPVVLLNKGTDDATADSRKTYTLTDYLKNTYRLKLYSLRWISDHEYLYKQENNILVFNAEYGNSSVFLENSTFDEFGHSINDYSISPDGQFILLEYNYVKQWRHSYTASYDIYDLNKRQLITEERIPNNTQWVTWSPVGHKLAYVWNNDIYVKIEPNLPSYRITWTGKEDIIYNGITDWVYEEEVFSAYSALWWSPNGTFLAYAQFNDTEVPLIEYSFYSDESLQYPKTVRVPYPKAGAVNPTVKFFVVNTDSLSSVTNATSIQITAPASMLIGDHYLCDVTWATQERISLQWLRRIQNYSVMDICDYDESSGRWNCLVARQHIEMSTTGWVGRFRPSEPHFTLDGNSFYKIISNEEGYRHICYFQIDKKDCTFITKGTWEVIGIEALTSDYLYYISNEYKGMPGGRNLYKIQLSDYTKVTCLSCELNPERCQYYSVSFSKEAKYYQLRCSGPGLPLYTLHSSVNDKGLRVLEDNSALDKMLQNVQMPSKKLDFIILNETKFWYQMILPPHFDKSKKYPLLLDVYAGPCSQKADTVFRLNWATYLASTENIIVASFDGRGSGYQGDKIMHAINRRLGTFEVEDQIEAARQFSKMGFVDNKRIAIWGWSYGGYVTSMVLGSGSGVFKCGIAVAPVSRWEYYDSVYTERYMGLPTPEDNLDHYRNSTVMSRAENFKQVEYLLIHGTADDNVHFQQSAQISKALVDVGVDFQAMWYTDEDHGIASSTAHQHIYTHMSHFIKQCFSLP
Chain of neprilysin (NEP) (P08473 whole entry): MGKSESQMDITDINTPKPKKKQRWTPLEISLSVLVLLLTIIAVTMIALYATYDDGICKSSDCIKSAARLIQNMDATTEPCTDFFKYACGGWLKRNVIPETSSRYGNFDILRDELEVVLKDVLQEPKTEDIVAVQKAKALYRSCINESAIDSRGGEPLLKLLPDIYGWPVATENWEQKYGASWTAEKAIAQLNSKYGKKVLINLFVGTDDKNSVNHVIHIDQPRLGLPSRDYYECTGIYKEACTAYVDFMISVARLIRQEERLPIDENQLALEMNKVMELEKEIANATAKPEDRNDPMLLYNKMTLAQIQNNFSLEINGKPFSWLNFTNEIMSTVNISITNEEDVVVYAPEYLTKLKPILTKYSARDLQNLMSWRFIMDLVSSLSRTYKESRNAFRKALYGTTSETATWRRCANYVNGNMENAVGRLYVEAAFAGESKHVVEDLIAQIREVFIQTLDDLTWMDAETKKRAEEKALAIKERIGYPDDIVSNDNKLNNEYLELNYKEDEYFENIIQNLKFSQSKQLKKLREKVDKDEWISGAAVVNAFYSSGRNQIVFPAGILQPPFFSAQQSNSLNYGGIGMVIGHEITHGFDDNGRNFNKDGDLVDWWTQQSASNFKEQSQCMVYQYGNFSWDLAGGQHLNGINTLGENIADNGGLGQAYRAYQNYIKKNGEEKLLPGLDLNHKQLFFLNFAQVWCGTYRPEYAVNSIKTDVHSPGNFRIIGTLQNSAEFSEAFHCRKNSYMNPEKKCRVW

As to `CC[C@H](C)[C@H](NC(=O)[C@H](CO)NC(=O)[C@H](CC(N)=O)NC(=O)[C@H](CC(C)C)NC(=O)[C@H](Cc1ccc(O)cc1)NC(=O)[C@H](CCCCN)NC(=O)[C@H](CCCCN)NC(=O)[C@@H](NC(=O)[C@H](C)NC(=O)[C@H](CCSC)NC(=O)[C@H](CCC(N)=O)NC(=O)[C@H](CCCCN)NC(=O)[C@H](CCCNC(=N)N)NC(=O)[C@H](CC(C)C)NC(=O)[C@H](CCCNC(=N)N)NC(=O)[C@@H](NC(=O)[C@H](Cc1ccc(O)cc1)NC(=O)[C@H](CC(N)=O)NC(=O)[C@H](CC(=O)O)NC(=O)[C@@H](NC(=O)[C@H](Cc1ccccc1)NC(=O)[C@@H](NC(=O)[C@H](C)NC(=O)[C@H](CC(=O)O)NC(=O)[C@H](CO)NC(=O)[C@@H](N)Cc1c[nH]cn1)C(C)C)[C@@H](C)O[C@H]1O[C@H](CO)[C@H](O)[C@H](O[C@@H]2O[C@H](CO)[C@H](O)[C@H](O[C@]3(C(=O)O)C[C@H](O)[C@@H](NC(C)=O)[C@H]([C@H](O)[C@H](O)CO)O3)[C@H]2O)[C@H]1NC(C)=O)[C@@H](C)O)C(C)C)C(=O)N[C@@H](CC(C)C)C(=O)N[C@@H](CC(N)=O)C(N)=O` [VIP-Thr7/ST], the “remained (completely) intact after incubation with NEP” value in series [1] was found to be 60 min. In series [2], the “partially intact after incubation with DPP-IV” value came to 60 min and the “remained fully intact after/until incubation with DPP-IV” value is 30 min.
HSDAVFT([GalNAc-Gal-NeuAc])DNYTRLRKQMAVKKYLNSILN [VIP with ST O-glycan at Thr7]: the “potency, cAMP accumulation (HTRF)” value came out at 0.074 µM in series [3] and 0.244 µM in series [4].
As to HSDAVFT(GalNAc)DNYTRLRKQMAVKKYLNSILN [VIP with one O-glycan (GalNAc/Tn) at residue 7], the “potency, cAMP accumulation (HTRF)” value in series [3] turned out to be 0.102 µM; in series [4], 0.242 µM.
